# Measurements from article doi:10.1101/2025.05.23.655777v1.
# Tested on: NCCCC(=O)O
# Experiment: purified protein
# Settings: fixed pyruvate (6 mM), TAPS pH 9.0, 50 µM PLP, 30 °C
substance,measurement,value
GABA-AT; GABA aminotransferase 1 (recombinant) (Arabidopsis thaliana),Km,590 ± 200 µM
same,kcat,4.97 s⁻¹
